# How the values were obtained:
# YFP-Stim1 (human) = YFP-Stim1 (human) (UniProt Q13586); assay: FRET or BRET
# CFP-Stim1 (human) = CFP-Stim1 (human) (UniProt Q13586); assay: FRET or BRET
FRET reduction against WT-Orai3 with Stim1 (YFP-Stim1 (human)),FRET reduction against WT-Orai3 with Stim1 (CFP-Stim1 (human)),Substance
20%,–,CFP-Orai3-L292S (from UniProt Q9BRQ5 1-295) (natural protein)
–,35%,YFP-Orai3-L285S (from UniProt Q9BRQ5 1-295) (natural protein)

# From publication PMC3048740
